Source: patent publication US20220064316A1 (published 2022)

B1: BCMA-Fc antigen (R&D Systems) (Fc fusion)
chain: MLQMAGQCSQNEYFDSLLHACIPCQLRCSSNTPPLTCQRYCNASVTNSVKGTNA
notes: also called BCMA fc fusion protein (R&D Systems, cat #193-BC-050); recombinant BCMA-Fc; not shown: Fc portion of the bought fusion protein

Experiments:
[1] = molecular target: T1, BCMA-10 CAR (139109); test: flow cytometry; BCMA-Fc antigen staining of CAR-transduced SupT1 cells
T1 construct: also called B10; EG63-98LB

[2] = molecular target: T2, human BCMA (B-cell maturation antigen) on cells (human, UniProt Q02223 1-184); test: cell-based or functional assay
T2 sequence (looked up): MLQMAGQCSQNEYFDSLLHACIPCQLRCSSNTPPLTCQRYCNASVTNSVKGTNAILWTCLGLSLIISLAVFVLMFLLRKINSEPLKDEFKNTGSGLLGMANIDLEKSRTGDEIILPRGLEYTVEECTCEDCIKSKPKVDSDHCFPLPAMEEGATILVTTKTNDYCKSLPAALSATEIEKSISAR

[3] = molecular target: B1; test: flow cytometry; BCMA-Fc staining of CAR-transduced JNL cells
Method: Jurkat-NFAT-luciferase (JNL) cells transduced with BCMA CAR constructs were evaluated for activation in response to BCMA-expressing target cell lines. Small-scale viral supernatant samples were generated in HEK293T cells for transduction of JNL cells. On Day 3 following transduction, BCMA CAR-transduced JNL cells were incubated with target cells at an effector-to-target (E:T) ratio of 6:1. Target cell lines were: K562-BCMA (engineered to stably express BCMA), K562 (parental line), and BCMA positive multiple myeloma cell lines, NCI-H929 and RPMI 8226. JNL activation was measured using Bright-Glo substrate (Promega) on Day 4. CAR expression on transduced JNL was assessed on Day 7 with BCMA-Fc antigen and Biotin-Protein L reagent (Table 21).

[4] = molecular target: T3, BCMA (recombinant, form not given) (UniProt Q02223 1-54, limits assumed); test: affinity assay (RU biosensor), 1:1 Binding fit
T3 construct: one entry is used for both; also called Bio-BCMA; BCMA substrate
T3 sequence (looked up): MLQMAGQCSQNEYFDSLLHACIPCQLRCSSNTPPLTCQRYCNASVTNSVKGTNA

B1
binding result [1]: binds

B2: BCMA-1 CAR (139100) (other)
chain: QVQLVQSGAEVRKTGASVKVSCKASGYIFDNFGINWVRQAPGQGLEWMGWINPKNNNTNYAQKFQGRVTITADESTNTAYMEVSSLRSEDTAVYYCARGPYYYQSYMDVWGQGTMVTVSSASGGGGSGGRASGGGGSDIVMTQTPLSLPVTPGEPASISCRSSQSLLHSNGYNYLNWYLQKPGQSPQLLIYLGSKRASGVPDRFSGSGSGTDFTLHITRVGAEDVGVYYCMQALQTPYTFGQGTKLEIKTTTPAPRPPTPAPTIASQPLSLRPEACRPAAGGAVHTRGLDFACDIYIWAPLAGTCGVLLLSLVITLYCKRGRKKLLYIFKQPFMRPVQTTQEEDGCSCRFPEEEEGGCELRVKFSRSADAPAYKQGQNQLYNELNLGRREEYDVLDKRRGRDPEMGGKPRRKNPQEGLYNELQKDKMAEAYSEIGMKGERRRGKGHDGLYQGLSTATKDTYDALHMQALPPR
notes: also called ER95-03VA
JNL binding assay, ratio to K562; K562-BCMA [2]: 4.6 ratio
JNL binding assay, ratio to K562; NCI-H929 [2]: 4.55 ratio
JNL binding assay, ratio to K562; RPMI 8226 [2]: 5.06 ratio
Proliferation CD3, ratio to no target; K562-BCMA [2]: 1.59 ratio
Proliferation CD3, ratio to no target; KMS11-luc [2]: 1.38 ratio
Proliferation CD3, ratio to no target; NCI-H929 [2]: 4.97 ratio
Proliferation CD3, ratio to no target; RPMI 8226 [2]: 2.96 ratio
Proliferation CD4, ratio to no target; K562-BCMA [2]: 1.57 ratio
Proliferation CD4, ratio to no target; KMS11-luc [2]: 1.24 ratio
Proliferation CD4, ratio to no target; NCI-H929 [2]: 5.57 ratio
Proliferation CD4, ratio to no target; RPMI 8226 [2]: 2.43 ratio
Proliferation CD8, ratio to no target; K562-BCMA [2]: 1.61 ratio
Proliferation CD8, ratio to no target; KMS11-luc [2]: 1.56 ratio
Proliferation CD8, ratio to no target; NCI-H929 [2]: 4.14 ratio
Proliferation CD8, ratio to no target; RPMI 8226 [2]: 3.58 ratio
% CAR+ (BCMA-Fc detection) [3]: 72.1%

B3: BCMA-14 CAR (139113) (other)
chain: EVQLVETGGGLVQPGGSLRLSCAVSGFALSNHGMSWVRRAPGKGLEWVSGIVYSGSTYYAASVKGRFTISRDNSRNTLYLQMNSLRPEDTAIYYCSAHGGESDVWGQGTTVTVSSASGGGGSGGRASGGGGSETTLTQSPATLSVSPGERATLSCRASQSVGSNLAWYQQKPGQGPRLLIYGASTRATGIPARFSGSGSGTEFTLTISSLQPEDFAVYYCQQYNDWLPVTFGQGTKVEIKTTTPAPRPPTPAPTIASQPLSLRPEACRPAAGGAVHTRGLDFACDIYIWAPLAGTCGVLLLSLVITLYCKRGRKKLLYIFKQPFMRPVQTTQEEDGCSCRFPEEEEGGCELRVKFSRSADAPAYKQGQNQLYNELNLGRREEYDVLDKRRGRDPEMGGKPRRKNPQEGLYNELQKDKMAEAYSEIGMKGERRRGKGHDGLYQGLSTATKDTYDALHMQALPPR
notes: also called HJ64-62PB
JNL binding assay, ratio to K562; K562-BCMA [2]: 2.81 ratio
JNL binding assay, ratio to K562; NCI-H929 [2]: 2.65 ratio
JNL binding assay, ratio to K562; RPMI 8226 [2]: 3.31 ratio
Proliferation CD3, ratio to no target; K562-BCMA [2]: 4.12 ratio
Proliferation CD3, ratio to no target; KMS11-luc [2]: 3.42 ratio
Proliferation CD3, ratio to no target; NCI-H929 [2]: 3.86 ratio
Proliferation CD3, ratio to no target; RPMI 8226 [2]: 3.93 ratio
Proliferation CD4, ratio to no target; K562-BCMA [2]: 5.73 ratio
Proliferation CD4, ratio to no target; KMS11-luc [2]: 3.97 ratio
Proliferation CD4, ratio to no target; NCI-H929 [2]: 5.07 ratio
Proliferation CD4, ratio to no target; RPMI 8226 [2]: 4.84 ratio
Proliferation CD8, ratio to no target; K562-BCMA [2]: 2.65 ratio
Proliferation CD8, ratio to no target; KMS11-luc [2]: 2.83 ratio
Proliferation CD8, ratio to no target; NCI-H929 [2]: 2.73 ratio
Proliferation CD8, ratio to no target; RPMI 8226 [2]: 3.03 ratio
% CAR+ (BCMA-Fc detection) [3]: 31.8%

B4: BCMA-15 CAR (139114) (other)
chain: EVQLVESGGGLVQPGGSLRLSCAVSGFALSNHGMSWVRRAPGKGLEWVSGIVYSGSTYYAASVKGRFTISRDNSRNTLYLQMNSLRPEDTAIYYCSAHGGESDVWGQGTTVTVSSASGGGGSGGRASGGGGSEIVLTQSPGTLSLSPGERATLSCRASQSIGSSSLAWYQQKPGQAPRLLMYGASSRASGIPDRFSGSGSGTDFTLTISRLEPEDFAVYYCQQYAGSPPFTFGQGTKVEIKTTTPAPRPPTPAPTIASQPLSLRPEACRPAAGGAVHTRGLDFACDIYIWAPLAGTCGVLLLSLVITLYCKRGRKKLLYIFKQPFMRPVQTTQEEDGCSCRFPEEEEGGCELRVKFSRSADAPAYKQGQNQLYNELNLGRREEYDVLDKRRGRDPEMGGKPRRKNPQEGLYNELQKDKMAEAYSEIGMKGERRRGKGHDGLYQGLSTATKDTYDALHMQALPPR
notes: also called B15; PY43-48LB
JNL binding assay, ratio to K562; K562-BCMA [2]: 2.91 ratio
JNL binding assay, ratio to K562; NCI-H929 [2]: 2.79 ratio
JNL binding assay, ratio to K562; RPMI 8226 [2]: 3.49 ratio
Proliferation CD3, ratio to no target; K562-BCMA [2]: 3.94 ratio
Proliferation CD3, ratio to no target; KMS11-luc [2]: 3.51 ratio
Proliferation CD3, ratio to no target; NCI-H929 [2]: 4.08 ratio
Proliferation CD3, ratio to no target; RPMI 8226 [2]: 3.73 ratio
Proliferation CD4, ratio to no target; K562-BCMA [2]: 4.87 ratio
Proliferation CD4, ratio to no target; KMS11-luc [2]: 3.82 ratio
Proliferation CD4, ratio to no target; NCI-H929 [2]: 4.82 ratio
Proliferation CD4, ratio to no target; RPMI 8226 [2]: 4.24 ratio
Proliferation CD8, ratio to no target; K562-BCMA [2]: 1.89 ratio
Proliferation CD8, ratio to no target; KMS11-luc [2]: 2.73 ratio
Proliferation CD8, ratio to no target; NCI-H929 [2]: 2.42 ratio
Proliferation CD8, ratio to no target; RPMI 8226 [2]: 2.51 ratio
% CAR+ (BCMA-Fc detection) [3]: 36.9%

B5: BCMA-13 scFv (139112) (scFv)
scFv: QVQLVESGGGLVQPGGSLRLSCAVSGFALSNHGMSWVRRAPGKGLEWVSGIVYSGSTYYAASVKGRFTISRDNSRNTLYLQMNSLRPEDTAIYYCSAHGGESDVWGQGTTVTVSSASGGGGSGGRASGGGGSDIRLTQSPSPLSASVGDRVTITCQASEDINKFLNWYHQTPGKAPKLLIYDASTLQTGVPSRFSGSGSGTDFTLTINSLQPEDIGTYYCQQYESLPLTFGGGTKVEIK
notes: also called B13
Kd [4]: 24.5 nM
koff [4]: 0.00161 s⁻¹
kon [4]: 65600 M⁻¹ s⁻¹

B6: BCMA-15 scFv (139114) (scFv)
scFv: EVQLVESGGGLVQPGGSLRLSCAVSGFALSNHGMSWVRRAPGKGLEWVSGIVYSGSTYYAASVKGRFTISRDNSRNTLYLQMNSLRPEDTAIYYCSAHGGESDVWGQGTTVTVSSASGGGGSGGRASGGGGSEIVLTQSPGTLSLSPGERATLSCRASQSIGSSSLAWYQQKPGQAPRLLMYGASSRASGIPDRFSGSGSGTDFTLTISRLEPEDFAVYYCQQYAGSPPFTFGQGTKVEIK
notes: also called B15; BMCA-15
Kd [4]: 9.3 nM
koff [4]: 0.00187 s⁻¹
kon [4]: 201000 M⁻¹ s⁻¹

B7: BCMA-4 scFv (139103) (scFv)
scFv: QVQLVESGGGLVQPGRSLRLSCAASGFTFSNYAMSWVRQAPGKGLGWVSGISRSGENTYYADSVKGRFTISRDNSKNTLYLQMNSLRDEDTAVYYCARSPAHYYGGMDVWGQGTTVTVSSASGGGGSGGRASGGGGSDIVLTQSPGTLSLSPGERATLSCRASQSISSSFLAWYQQKPGQAPRLLIYGASRRATGIPDRFSGSGSGTDFTLTISRLEPEDSAVYYCQQYHSSPSWTFGQGTKLEIK
notes: also called B4
Kd [4]: 1 nM
koff [4]: 0.0006 s⁻¹
kon [4]: 617000 M⁻¹ s⁻¹
